Key:
[1] = target: paxillin LIM2/3 tandem domain (aa380-499) (human) (UniProt P49023); assay: NMR titration; 1H-15N HSQC, 250-300 μM 15N-labelled paxillin LIM2/3 (wt or 4A), unlabelled integrin β3 tail added; 298 K, 50 mM Na2HPO4, 150 mM NaCl, 0.1 mM ZnSO4, 1 mM DTT, 5% D2O, pH 7.5; global fit of CSPs
[2] = target: cytoplasmic tail of human integrin β3 (aa748-788) (human) (UniProt P05106); assay: NMR titration; 1H-15N HSQC, 300 μM 15N-labelled integrin β tail, unlabelled paxillin LIM2/3 added; 298 K, 50 mM Na2HPO4, 150 mM NaCl, 0.1 mM ZnSO4, 1 mM DTT, 5% D2O, pH 6.2; global fit of CSPs to a one site binding model
[3] = target: cytoplasmic tail of human integrin β1 (aa758-798) (human) (UniProt P05556); assay: as above
[4] = target: T1, ITGB1 (Homo sapiens (Human), UniProt P05556); assay: NMR
T1 chain: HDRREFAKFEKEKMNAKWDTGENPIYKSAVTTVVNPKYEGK

[5] = target: T2, ITGB3 (Homo sapiens (Human), UniProt P05106); assay: NMR
T2 chain: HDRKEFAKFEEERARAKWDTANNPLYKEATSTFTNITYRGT

## cytoplasmic tail of human integrin β3 (aa748-788) (from UniProt P05106 748-788) (domain or fragment)
[1]
  Kd: 532 µM

## paxillin LIM2/3 tandem domain (aa380-499) (from UniProt P49023-2 380-499) (domain or fragment)
[2]
  Kd: 528 µM
  fraction bound at the end of the titration: 70%
[3]
  Kd: 52 µM

B1: paxillin (protein)
chain: SPRCYYCNGPILDKVVTALDRTWHPEHFFCAQCGAFFGPEGFHEKDGKAYCRKDYFDMFAPKCGGCARAILENYISALNTLWHPECFVCRECFTPFVNGSFFEHDGQPYCEVHYHERRGS
[4]
  Kd: 52 µM
[5]
  Kd: 528 µM

— publication PMC11374337 (2024)
